Columns and labels:
[1] = ELISA for serum binding antibodies against HB36.6 after repeat dosing; assay type: in vivo, mice; conditions: 3.0 mg/kg IN doses two weeks apart
Procedure: Plates were blocked with 5% nonfat milk powder in PBS for 1 h at room temperature, and then washed three times with wash buffer (PBS-T; phosphate-buffered saline containing 0.05% Tween 20). Two-fold serial dilutions of samples were added to the wells and plates were incubated for 1 hr at room temperature. Following three washes with PBS-T, plates were incubated with horseradish-peroxidase conjugated goat anti-mouse IgG (1/3,000 dilution) secondary antibodies (Thermo Scientific Pierce) for 1 h at room temperature. After five washes with PBS-T, TMB substrate (KPL) was added to the wells for 30 min at room temperature.

[2] = Bio-Plex inflammatory cytokines in lung homogenates after protein administration (no infection); assay type: in vivo, BALB/c mice; conditions: single IN dose 6.0 mg/kg
Procedure: The concentrations of cytokines in lung tissue were measured. […] Lungs were thawed, weighed and lysed using the Bio-Plex® Cell Lysis Kit (Bio-Rad, Hercules, Calif.). The levels of interleukin (IL)-6, IL-10. IL-12(p70), interferon (IFN)-γ, and tumor necrosis factor (TNF)-α in the lysate were measured using a Bio-Plex) multiplex bead array kit (Bio-Rad, Hercules, Calif.). The Bio-Plex® assay was performed in accordance with the manufacturer's instructions.

B1: HB36.6: HA stem binding protein, variant of HB36.5 with nine substitutions (SEQ ID NO: 3); FLAG-tagged in the studies (protein)
chain: SNAMDGQQLNRLLLENIGAWDPFGLGKDAYTYQAAEVLKAVYETNRAFDLAMRIHWIYNFAFKRRIPFARTQKLARRLLELKQAASSPLP
modifications: FLAG tag; (1)..(5) optionally absent; (86)..(90) optionally absent
notes: FLAG-tagged in the studies
serum binding antibodies against HB36.6 ([1]; after the 1st and 2nd dose): No antibodies against HB36.6 were detected
animals with low levels of antibody responses ([1]; by 3rd dose): 4 of the 10
cytokine levels by 48 hrs [2]: dropped to pre-administration levels
cytokine levels compared with 1u84 [2]: significantly lower than levels induced by 1u84

— patent US9771395B2, “Enhanced influenza hemagglutinin binders” (UNIVERSITY OF WASHINGTON, priority 2014, dated 2017)
